Assay [1] addresses mouse-human chimeric mAb 101F. Briefly: ELISA.
In assay [2] the target is D25. Briefly: ELISA. (In an ELISA, binding on a coated surface is turned into a signal by an enzyme label.)
The target of the next assay is palivizumab. As to conditions: cells fixed with 4% (vol/vol) paraformaldehyde 16 h after transfection; read off a plot.
For assay [3], the target named is D25. The settings on record: cells fixed with 4% (vol/vol) paraformaldehyde 16 h after transfection; read off a plot.

The term EC50 denotes the concentration needed to bring the measured effect to its halfway point. Low readings indicate greater potency, high ones weaker potency.

Take post-fusion RSV A2 F protein G430A: in assay [1], the EC50 was found to be 0.035 µg/mL. Take post-fusion RSV A2 F protein I432A: the EC50 in assay [1] came to 0.066 µg/mL. On the same count and under the same terms, the figure for post-fusion RSV A2 F protein R429A is 0.026 µg/mL. On to pre-fusion RSV A2 F SC-TM protein G430A, for which the EC50 in assay [1] was 0.97 µg/mL.

pre-fusion RSV A2 F SC-TM protein R429A came in with an EC50 with D25 [2] of 0.023 µg/mL.

Turning to “wild-type RSV F (RSV-A2) expressed on HEK-293T cells G430A”, the percent of parent with palivizumab is 400 % WT; in the assay with D25 [3], 310 % WT. Turning to “wild-type RSV F (RSV-A2) expressed on HEK-293T cells I432A”, the values for the percent of parent in the assay with palivizumab and in the assay with D25 [3] were 260 % WT and 240 % WT, respectively.

Consider “wild-type RSV F (RSV-A2) expressed on HEK-293T cells R429A”, for which the percent of parent amounted to 310 % WT with palivizumab and 390 % WT with D25 [3].

The record behind these values is publication PMC5823459.
